From article PMC9338935, “Structural determinants of DNA recognition by the NO sensor NsrR and related Rrf2-type [FeS]-transcription factors” (Communications Biology, 2022)

What was measured:
[1] = target: T1, [4Fe-4S]-NsrR (ScNsrR) (Streptomyces coelicolor, UniProt Q9L132 1-148); test: EMSA; [4Fe-4S] cluster; EMSA: 10 mM Tris, 54 mM KCl, 0.3% glycerol, 1.32 mM GSH, pH 7.5, on ice, ~4 nM DNA, up to ~20-fold molar excess [4Fe-4S] NsrR. Crystal complex: 50 mM Tris pH 8.0, 500 mM NaCl, 5% glycerol, 20 C, anaerobic; grown in PEG, 30 mM MgCl2, 30 mM CaCl2, MOPS/HEPES pH 8.0; conditions: protein: recombinant; chain copies: 2; label: 6-FAM (from PCR primers); blunt
T1 sequence: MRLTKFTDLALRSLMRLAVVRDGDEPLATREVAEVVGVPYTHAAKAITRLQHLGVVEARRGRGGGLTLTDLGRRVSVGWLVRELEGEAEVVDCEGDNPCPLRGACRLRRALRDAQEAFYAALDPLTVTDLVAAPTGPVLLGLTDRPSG

[2] = target: T1, [4Fe-4S]-NsrR (ScNsrR); test: EMSA; [4Fe-4S] cluster; essentially stoichiometric, no significant difference; EMSA: 10 mM Tris, 54 mM KCl, 0.3% glycerol, 1.32 mM GSH, pH 7.5, on ice, ~4 nM DNA, up to ~20-fold molar excess [4Fe-4S] NsrR. Crystal complex: 50 mM Tris pH 8.0, 500 mM NaCl, 5% glycerol, 20 C, anaerobic; grown in PEG, 30 mM MgCl2, 30 mM CaCl2, MOPS/HEPES pH 8.0; conditions: protein: recombinant; chain copies: 2; label: 6-FAM (from PCR primers); blunt
[3] = target: T1, [4Fe-4S]-NsrR (ScNsrR); test: EMSA; [4Fe-4S] cluster; no clear difference from wild type; EMSA: 10 mM Tris, 54 mM KCl, 0.3% glycerol, 1.32 mM GSH, pH 7.5, on ice, ~4 nM DNA, up to ~20-fold molar excess [4Fe-4S] NsrR. Crystal complex: 50 mM Tris pH 8.0, 500 mM NaCl, 5% glycerol, 20 C, anaerobic; grown in PEG, 30 mM MgCl2, 30 mM CaCl2, MOPS/HEPES pH 8.0; conditions: protein: recombinant; chain copies: 2; label: 6-FAM (from PCR primers); blunt
[4] = target: the molecule itself; test: crystal structure; [4Fe-4S]-ScNsrR dimer complexed with a 23 bp hmpA1 operator dsDNA fragment; 3.0 Å; crystallised anaerobically; space group P6_(5)
[5] = target: T1, [4Fe-4S]-NsrR (ScNsrR); test: X-ray crystallography; [4Fe-4S] cluster; EMSA: 10 mM Tris, 54 mM KCl, 0.3% glycerol, 1.32 mM GSH, pH 7.5, on ice, ~4 nM DNA, up to ~20-fold molar excess [4Fe-4S] NsrR. Crystal complex: 50 mM Tris pH 8.0, 500 mM NaCl, 5% glycerol, 20 C, anaerobic; grown in PEG, 30 mM MgCl2, 30 mM CaCl2, MOPS/HEPES pH 8.0; conditions: protein: recombinant; chain copies: 2; blunt

B1: Av003 wild type hmpA1 probe (dsDNA)
DNA 1: CTAAAACGACGGCCAGTCGGGATGACGGGCGGCGGCCCCCTGAGGCCGTCGAGCTGTGGCCTAAAACACGAATATCATCTACCAATTAAGGAGTCGCTGTGCTCTCCGAACAGTCCGTTCCCGTGGTCCGAGCCGTCATAGCTGTTTCCTG
DNA 2: CAGGAAACAGCTATGACGGCTCGGACCACGGGAACGGACTGTTCGGAGAGCACAGCGACTCCTTAATTGGTAGATGATATTCGTGTTTTAGGCCACAGCTCGACGGCCTCAGGGGGCCGCCGCCCGTCATCCCGACTGGCCGTCGTTTTAG
- binding result [1]: binds

B2: Av007 hmpG/C probe (dsDNA)
DNA 1: CTAAAACGACGGCCAGTCGGGATGACGGGCGGCGGCCCCCTGAGGCCGTCGAGCTGTGGCCTAAAACACGAACGCCGCCTACCAATTAAGGAGTCGCTGTGCTCTCCGAACAGTCCGTTCCCGTGGTCCGAGCCGTCATAGCTGTTTCCTG
DNA 2: CAGGAAACAGCTATGACGGCTCGGACCACGGGAACGGACTGTTCGGAGAGCACAGCGACTCCTTAATTGGTAGGCGGCGTTCGTGTTTTAGGCCACAGCTCGACGGCCTCAGGGGGCCGCCGCCCGTCATCCCGACTGGCCGTCGTTTTAG
- binding result [2]: binds

B3: Av004 hmpXT1 probe (dsDNA)
DNA 1: CTAAAACGACGGCCAGTCGGGATGACGGGCGGCGGCCCCCTGAGGCCGTCGAGCTGTGGCCTAAAACACGAATAACTTCTACCAATTAAGGAGTCGCTGTGCTCTCCGAACAGTCCGTTCCCGTGGTCCGAGCCGTCATAGCTGTTTCCTG
DNA 2: CAGGAAACAGCTATGACGGCTCGGACCACGGGAACGGACTGTTCGGAGAGCACAGCGACTCCTTAATTGGTAGAAGTTATTCGTGTTTTAGGCCACAGCTCGACGGCCTCAGGGGGCCGCCGCCCGTCATCCCGACTGGCCGTCGTTTTAG
- binding result [3]: binds

B4: Av006 hmpA/T probe (dsDNA)
DNA 1: CTAAAACGACGGCCAGTCGGGATGACGGGCGGCGGCCCCCTGAGGCCGTCGAGCTGTGGCCTAAAACACGAATATTATTTACCAATTAAGGAGTCGCTGTGCTCTCCGAACAGTCCGTTCCCGTGGTCCGAGCCGTCATAGCTGTTTCCTG
DNA 2: CAGGAAACAGCTATGACGGCTCGGACCACGGGAACGGACTGTTCGGAGAGCACAGCGACTCCTTAATTGGTAAATAATATTCGTGTTTTAGGCCACAGCTCGACGGCCTCAGGGGGCCGCCGCCCGTCATCCCGACTGGCCGTCGTTTTAG
- binding result [2]: binds

B5: Av005 hmpXT2 probe (dsDNA)
DNA 1: CTAAAACGACGGCCAGTCGGGATGACGGGCGGCGGCCCCCTGAGGCCGTCGAGCTGTGGCCTAAAACACGAAAATCATTTACCAATTAAGGAGTCGCTGTGCTCTCCGAACAGTCCGTTCCCGTGGTCCGAGCCGTCATAGCTGTTTCCTG
DNA 2: CAGGAAACAGCTATGACGGCTCGGACCACGGGAACGGACTGTTCGGAGAGCACAGCGACTCCTTAATTGGTAAATGATTTTCGTGTTTTAGGCCACAGCTCGACGGCCTCAGGGGGCCGCCGCCCGTCATCCCGACTGGCCGTCGTTTTAG
- binding result [3]: binds

B6: [4Fe-4S]-NsrR from Streptomyces coelicolor (natural protein)
chain: MRLTKFTDLALRSLMRLAVVRDGDEPLATREVAEVVGVPYTHAAKAITRLQHLGVVEARRGRGGGLTLTDLGRRVSVGWLVRELEGEAEVVDCEGDNPCPLRGACRLRRALRDAQEAFYAALDPLTVTDLVAAPTGPVLLGLTDRPSG
notes: NsrR, NO-sensing Rrf2 family transcription factor of Streptomyces coelicolor; also called ScNsrR; [4Fe-4S]-ScNsrR
- stoichiometry N [4]: 2

B7: hmpA1 operator 23 bp (dsDNA)
DNA 1: AACACGAATATCATCTACCAATT
DNA 2: AATTGGTAGATGATATTCGTGTT
- binding result [5]: binds
